Measurements as given in paper PMC10988696, “FLIM‐FRET‐based analysis of S100A11/annexin interactions in living cells” (FEBS Open Bio, 2024).
Like-named read-outs stand apart in the source and are kept apart here. Each block holds one molecule with its values, some of them ahead of it.

Assays:
Assay in all cases: FRET or BRET; FLIM-FRET (EGFP donor lifetime, mCherry acceptor) in living U2OS cells co-transfected with both constructs, imaged in PBS 42-45 h after transfection, normal cytosolic calcium; E = 1 - tauDA/tauD from amplitude-weighted mean lifetimes
EGFP-ANXA2 = biological target: T1, EGFP-ANXA2 (human, UniProt P07355 1-339)
T1 construct: human annexin A2 (ANXA2) with the fluorescent protein tag in the altered orientation (EGFP-ANXA2); The cloning of this orientation is not described in the methods; source: U2OS or HEK293T cells, transfected (calcium phosphate), in living cells; not shown: EGFP, N-terminal, kept

AnxA6-EGFP = biological target: T2, AnxA6-EGFP (rat, UniProt P48037 1-673); details: partners not purified
T2 construct: rat annexin A6; plasmid provided by C; End of the tag read from the label AnxA6-EGFP; also called rat annexin A6; source: U2OS cells, transfected (calcium phosphate), in living cells; not shown: EGFP, C-terminal, kept
T2 sequence (looked up): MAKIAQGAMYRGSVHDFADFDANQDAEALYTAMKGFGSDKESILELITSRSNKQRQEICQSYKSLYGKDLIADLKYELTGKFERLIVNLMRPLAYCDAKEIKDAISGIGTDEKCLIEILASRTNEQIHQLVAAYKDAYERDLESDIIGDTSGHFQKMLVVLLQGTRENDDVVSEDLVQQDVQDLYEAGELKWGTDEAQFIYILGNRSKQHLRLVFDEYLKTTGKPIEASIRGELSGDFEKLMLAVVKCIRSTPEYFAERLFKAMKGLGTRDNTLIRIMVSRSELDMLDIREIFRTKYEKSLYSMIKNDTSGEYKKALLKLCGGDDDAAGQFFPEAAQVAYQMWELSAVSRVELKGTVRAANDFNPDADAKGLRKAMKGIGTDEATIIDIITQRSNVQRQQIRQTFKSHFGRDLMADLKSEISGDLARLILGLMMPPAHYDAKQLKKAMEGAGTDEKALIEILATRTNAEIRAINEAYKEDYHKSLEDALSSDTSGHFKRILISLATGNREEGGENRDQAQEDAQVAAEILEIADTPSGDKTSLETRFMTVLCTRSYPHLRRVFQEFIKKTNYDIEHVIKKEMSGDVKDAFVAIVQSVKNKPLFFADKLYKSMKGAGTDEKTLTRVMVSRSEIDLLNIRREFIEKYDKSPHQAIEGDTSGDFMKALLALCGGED

ANXA4-EGFP = biological target: T3, ANXA4-EGFP (human, UniProt P09525 1-319); details: partners not purified
T3 construct: human annexin A4, PCR amplified from A431 cDNA; cloned in pEGFP-N1 (HindIII, BamHI); also called annexin A4; source: U2OS cells, transfected (calcium phosphate), in living cells; not shown: EGFP, C-terminal, kept
T3 sequence (looked up): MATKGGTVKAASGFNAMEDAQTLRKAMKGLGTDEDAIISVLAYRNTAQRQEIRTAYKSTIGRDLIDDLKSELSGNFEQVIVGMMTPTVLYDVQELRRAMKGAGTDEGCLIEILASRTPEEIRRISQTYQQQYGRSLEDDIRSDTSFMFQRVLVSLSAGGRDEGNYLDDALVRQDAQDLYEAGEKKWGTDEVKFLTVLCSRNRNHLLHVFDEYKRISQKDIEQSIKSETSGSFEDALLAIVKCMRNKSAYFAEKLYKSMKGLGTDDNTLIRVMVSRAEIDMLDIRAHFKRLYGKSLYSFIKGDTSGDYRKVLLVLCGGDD

ANXA1-EGFP = biological target: T4, ANXA1-EGFP (human, UniProt P04083 1-346); details: partners not purified
T4 construct: human annexin A1, PCR amplified from A431 cDNA; cloned in pEGFP-N1 (XhoI, BamHI); End of the tag read from the label ANXA1-EGFP and the vector pEGFP-N1; also called annexin A1; source: U2OS cells, transfected (calcium phosphate), in living cells; not shown: EGFP, C-terminal, kept
T4 sequence (looked up): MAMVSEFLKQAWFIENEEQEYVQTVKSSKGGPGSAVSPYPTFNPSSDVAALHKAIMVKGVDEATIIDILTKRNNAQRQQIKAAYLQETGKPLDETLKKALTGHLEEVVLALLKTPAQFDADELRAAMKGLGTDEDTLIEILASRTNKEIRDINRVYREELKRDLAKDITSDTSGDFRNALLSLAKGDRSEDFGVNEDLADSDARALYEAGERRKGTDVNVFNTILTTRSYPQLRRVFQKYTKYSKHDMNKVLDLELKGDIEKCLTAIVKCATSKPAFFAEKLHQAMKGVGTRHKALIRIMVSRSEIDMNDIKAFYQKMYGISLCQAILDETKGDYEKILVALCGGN

ANXA2-EGFP = biological target: T5, ANXA2-EGFP (human, UniProt P07355 1-339); details: partners not purified
T5 construct: human annexin A2 (ANXA2); EGFP is the FRET donor; also called annexin A2; source: U2OS cells, transfected (calcium phosphate), in living cells; not shown: EGFP, C-terminal, kept
T5 sequence (P07355 whole entry): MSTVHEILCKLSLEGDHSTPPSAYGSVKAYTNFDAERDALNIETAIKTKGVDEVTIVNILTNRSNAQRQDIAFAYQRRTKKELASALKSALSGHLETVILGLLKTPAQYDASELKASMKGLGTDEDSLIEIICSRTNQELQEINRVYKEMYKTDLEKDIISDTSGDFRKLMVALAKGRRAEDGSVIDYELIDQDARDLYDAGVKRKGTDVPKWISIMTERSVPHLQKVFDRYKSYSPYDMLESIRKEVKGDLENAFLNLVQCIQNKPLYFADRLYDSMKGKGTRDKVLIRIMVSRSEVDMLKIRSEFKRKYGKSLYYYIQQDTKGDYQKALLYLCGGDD

T1 sequence (P07355 whole entry): as above

- FRET efficiency (E) (EGFP-ANXA2): 3.7%
Molecule: S100A11ΔCa-mCherry (from UniProt P31949 1-105) (natural protein)

- FRET efficiency (E) (AnxA6-EGFP): ~6%
- FRET efficiency (E) (EGFP-ANXA2; partners not purified): ~9%
- FRET efficiency (E) (ANXA4-EGFP): ~5%
- FRET efficiency (E) (ANXA1-EGFP): 5.3%
- FRET efficiency (E) (ANXA2-EGFP): 7.5%
B1: S100A11-mCherry (natural protein, human, UniProt P31949 1-105, looked up)
chain: MAKISSPTETERCIESLIAVFQKYAGKDGYNYTLSKTEFLSFMNTELAAFTKNQKDPGVLDRMMKKLDTNSDGQLDFSEFLNLIGGLAMACHDSFLKAVPSQKRT
notes: human S100A11 wild type; cloned in pmCherry-N1 (EcoRI, BamHI); End of the tag read from the label S100A11-mCherry and the vector pmCherry-N1; also called S100A11wt; wild-type S100A11-mCherry; source: U2OS or HEK293T cells, transfected (calcium phosphate), in living cells; not shown: mCherry, C-terminal, kept
